How the values were obtained:
[1] = target: T1, human LILRA5 (human, UniProt A6NI73 42-299); test: FACS, 293F-hLILRA5 cells
T1 construct: whole, on cells; also called hLILRA5

[2] = target: T2, human LILRA1 (human, UniProt O75019 17-489); test: FACS, 293F-hLILRA1 cells
T2 construct: whole, on cells; also called hLILRA1

[3] = target: T3, human LILRB1 (human, UniProt Q8NHL6 24-650); test: FACS, 293F-hLILRB1 cells
T3 construct: whole, on cells; also called hLILRB1

[4] = target: T4, human LILRB3 (human, UniProt O75022 24-631); test: FACS, 293F-hLILRB3 cells
T4 construct: whole, on cells; also called hLILRB3

[5] = target: T5, human LILRA4 (human, UniProt P59901 24-499); test: FACS, 293F-hLILRA4 cells
T5 construct: whole, on cells; also called hLILRA4

[6] = target: T6, human LILRB5 (human, UniProt O75023 24-590); test: FACS, 293F-hLILRB5 cells
T6 construct: whole, on cells; also called hLILRB5

[7] = target: T7, human LILRB4 (human, UniProt Q8NHJ6 22-448); test: FACS, 293F-hLILRB4 cells
T7 construct: whole, on cells; also called hLILRB4
Protocol: The subcloning plates were screened by protein or cell-based ELISA, and the subclones with good binding ability were expanded to 24-wells for confirmation tests. The specificity and cross-reactivity of these subclones were confirmed with FACS analysis. […] Fluorescent dye-conjugated secondary antibody was used to detect the binding of the primary antibody with the cells. Median fluorescence intensity (MFI) was measured by FACS analysis. […]

[8] = target: T8, human LILRB2 (human, UniProt Q8N423 22-597); test: FACS, 293F-hLILRB2 cells
T8 construct: whole, on cells; also called hLILRB2

[9] = target: T9, human LILRA2 (human, UniProt Q8N149 24-483); test: FACS, 293F-hLILRA2 cells
T9 construct: whole, on cells; also called hLILRA2

[10] = target: T10, human LILRA3 (human, UniProt Q8N6C8 24-439); test: FACS, 293F-hLILRA3 cells
T10 construct: whole, on cells; also called hLILRA3

[11] = target: T7, human LILRB4; test: cell-based or functional assay
[12] = target: T7, human LILRB4; test: cell-based or functional assay; remark: listed apart in the source
[13] = target: T7, human LILRB4; test: cell-based or functional assay; remark: listed apart in the source
[14] = target: T7, human LILRB4; test: FACS, 293F-hLILRB4 cells; remark: listed apart in the source
Protocol: (§1) The protocol for FACS analysis is described as follows: [0438] (a) Cells were harvested by centrifugation at 300 g for 3 mins. […] (b) The cells were washed for 2 times with FACS buffer by centrifuging at 300 g for 3 mins and the supernatant was discarded. [0440] (c) Cell were resuspended and seeded into assay plate (2×10⁵ cells/well) in 50 μl FACS buffer. […] Cells were incubated with antibodies at 4° C. for 1 hour. […] (d) Step (b) was repeated and the cells were resuspended with 100 μl diluted 2nd antibody, incubated at 4° C. for 1 hour in the dark. [0442] (e) Step (b) was repeated and the cells were resuspended with 100 μl FACS buffer. The cells were kept in dark for FACS analysis.

[15] = target: T4, human LILRB3; test: FACS, 293F-hLILRB3 cells; remark: listed apart in the source
Protocol: as §1

T4 sequence (O75022 24-631): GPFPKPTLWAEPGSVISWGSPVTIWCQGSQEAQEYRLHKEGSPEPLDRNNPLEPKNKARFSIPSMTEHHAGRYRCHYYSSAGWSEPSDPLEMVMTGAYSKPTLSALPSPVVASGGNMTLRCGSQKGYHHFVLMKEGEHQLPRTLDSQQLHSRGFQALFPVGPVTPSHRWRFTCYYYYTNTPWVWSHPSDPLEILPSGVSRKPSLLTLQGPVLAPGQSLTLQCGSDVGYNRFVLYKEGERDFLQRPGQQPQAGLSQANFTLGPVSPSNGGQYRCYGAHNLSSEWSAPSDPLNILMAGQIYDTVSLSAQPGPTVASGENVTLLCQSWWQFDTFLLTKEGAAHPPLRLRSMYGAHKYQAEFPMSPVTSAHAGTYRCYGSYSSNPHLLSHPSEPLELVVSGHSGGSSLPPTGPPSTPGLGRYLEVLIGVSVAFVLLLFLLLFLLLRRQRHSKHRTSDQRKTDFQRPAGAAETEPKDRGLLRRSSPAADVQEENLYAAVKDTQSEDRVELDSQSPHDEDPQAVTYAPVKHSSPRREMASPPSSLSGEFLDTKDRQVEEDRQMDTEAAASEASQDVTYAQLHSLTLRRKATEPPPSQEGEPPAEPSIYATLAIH
T10 sequence (Q8N6C8 24-439): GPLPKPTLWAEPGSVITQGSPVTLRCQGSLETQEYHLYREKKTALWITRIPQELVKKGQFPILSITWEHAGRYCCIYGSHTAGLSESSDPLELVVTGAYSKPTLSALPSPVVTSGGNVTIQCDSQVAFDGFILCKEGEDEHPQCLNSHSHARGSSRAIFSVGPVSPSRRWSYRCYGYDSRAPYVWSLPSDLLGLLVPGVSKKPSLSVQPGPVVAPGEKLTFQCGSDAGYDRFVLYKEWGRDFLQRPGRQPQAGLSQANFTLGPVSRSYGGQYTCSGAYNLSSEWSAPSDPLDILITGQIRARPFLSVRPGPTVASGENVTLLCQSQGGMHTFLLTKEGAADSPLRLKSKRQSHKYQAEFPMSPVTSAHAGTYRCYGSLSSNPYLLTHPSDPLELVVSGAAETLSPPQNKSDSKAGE
T6 sequence (O75023 24-590): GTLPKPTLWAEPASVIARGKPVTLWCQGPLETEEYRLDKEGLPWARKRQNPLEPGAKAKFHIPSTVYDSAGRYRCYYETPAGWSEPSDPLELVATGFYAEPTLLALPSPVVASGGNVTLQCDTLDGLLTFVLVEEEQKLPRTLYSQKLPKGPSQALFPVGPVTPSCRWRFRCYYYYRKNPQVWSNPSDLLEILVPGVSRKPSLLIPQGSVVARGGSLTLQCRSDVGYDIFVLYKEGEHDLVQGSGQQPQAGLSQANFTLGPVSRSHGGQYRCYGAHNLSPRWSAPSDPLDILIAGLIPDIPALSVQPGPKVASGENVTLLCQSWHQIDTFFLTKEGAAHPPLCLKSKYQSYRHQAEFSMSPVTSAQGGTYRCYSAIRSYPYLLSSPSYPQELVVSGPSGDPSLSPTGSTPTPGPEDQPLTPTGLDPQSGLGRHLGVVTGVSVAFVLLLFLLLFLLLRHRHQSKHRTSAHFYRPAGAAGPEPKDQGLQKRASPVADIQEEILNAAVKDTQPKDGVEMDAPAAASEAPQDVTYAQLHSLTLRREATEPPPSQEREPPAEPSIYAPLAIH
T9 sequence (Q8N149 24-483): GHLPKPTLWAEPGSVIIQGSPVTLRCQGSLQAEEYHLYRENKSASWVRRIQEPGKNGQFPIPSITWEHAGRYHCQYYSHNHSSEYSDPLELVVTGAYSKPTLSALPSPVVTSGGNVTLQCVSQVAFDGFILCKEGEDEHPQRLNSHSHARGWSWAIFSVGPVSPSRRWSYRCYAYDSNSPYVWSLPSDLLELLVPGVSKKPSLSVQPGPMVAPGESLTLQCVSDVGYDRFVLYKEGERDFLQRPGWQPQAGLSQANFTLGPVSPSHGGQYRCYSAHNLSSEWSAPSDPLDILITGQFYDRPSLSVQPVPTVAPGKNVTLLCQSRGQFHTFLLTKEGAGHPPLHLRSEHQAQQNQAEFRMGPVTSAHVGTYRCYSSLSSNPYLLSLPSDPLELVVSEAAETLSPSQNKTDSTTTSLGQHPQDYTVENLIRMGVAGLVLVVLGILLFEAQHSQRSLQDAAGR
T1 sequence (A6NI73 42-299): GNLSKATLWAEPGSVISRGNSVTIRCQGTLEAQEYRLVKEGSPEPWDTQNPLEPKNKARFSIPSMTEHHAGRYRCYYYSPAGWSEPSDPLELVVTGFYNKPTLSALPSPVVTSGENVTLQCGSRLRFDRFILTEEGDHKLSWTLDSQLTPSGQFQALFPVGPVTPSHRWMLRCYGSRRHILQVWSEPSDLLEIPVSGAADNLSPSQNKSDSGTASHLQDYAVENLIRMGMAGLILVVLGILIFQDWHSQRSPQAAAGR
T3 sequence (Q8NHL6 24-650): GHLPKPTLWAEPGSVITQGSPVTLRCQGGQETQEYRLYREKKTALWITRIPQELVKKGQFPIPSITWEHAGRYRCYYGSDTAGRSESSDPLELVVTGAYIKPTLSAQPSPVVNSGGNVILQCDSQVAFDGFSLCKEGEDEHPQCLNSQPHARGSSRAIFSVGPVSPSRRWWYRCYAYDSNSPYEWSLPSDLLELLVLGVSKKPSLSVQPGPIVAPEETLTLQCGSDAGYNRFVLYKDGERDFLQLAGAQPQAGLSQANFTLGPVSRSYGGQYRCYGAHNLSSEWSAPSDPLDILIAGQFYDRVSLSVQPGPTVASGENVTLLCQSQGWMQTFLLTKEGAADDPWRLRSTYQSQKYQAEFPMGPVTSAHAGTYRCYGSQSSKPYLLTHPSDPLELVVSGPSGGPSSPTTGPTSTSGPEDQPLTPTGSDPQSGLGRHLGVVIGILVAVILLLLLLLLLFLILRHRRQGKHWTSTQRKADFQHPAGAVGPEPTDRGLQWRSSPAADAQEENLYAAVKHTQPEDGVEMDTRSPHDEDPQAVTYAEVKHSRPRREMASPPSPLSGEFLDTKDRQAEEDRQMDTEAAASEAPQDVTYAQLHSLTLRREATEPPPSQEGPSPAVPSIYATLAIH
T2 sequence (O75019 17-489): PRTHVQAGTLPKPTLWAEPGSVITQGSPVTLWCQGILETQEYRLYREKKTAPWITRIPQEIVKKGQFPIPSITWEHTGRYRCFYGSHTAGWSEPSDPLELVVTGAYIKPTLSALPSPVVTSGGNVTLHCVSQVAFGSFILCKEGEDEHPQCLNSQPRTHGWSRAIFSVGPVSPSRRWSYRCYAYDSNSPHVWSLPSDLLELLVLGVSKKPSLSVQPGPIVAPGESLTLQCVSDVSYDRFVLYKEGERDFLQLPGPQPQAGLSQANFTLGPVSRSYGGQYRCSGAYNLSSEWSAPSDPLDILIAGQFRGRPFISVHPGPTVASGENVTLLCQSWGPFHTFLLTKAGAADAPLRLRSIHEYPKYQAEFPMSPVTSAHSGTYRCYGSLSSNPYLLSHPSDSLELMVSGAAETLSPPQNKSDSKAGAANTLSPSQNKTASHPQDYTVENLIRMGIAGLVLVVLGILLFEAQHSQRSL
T8 sequence (Q8N423 22-597): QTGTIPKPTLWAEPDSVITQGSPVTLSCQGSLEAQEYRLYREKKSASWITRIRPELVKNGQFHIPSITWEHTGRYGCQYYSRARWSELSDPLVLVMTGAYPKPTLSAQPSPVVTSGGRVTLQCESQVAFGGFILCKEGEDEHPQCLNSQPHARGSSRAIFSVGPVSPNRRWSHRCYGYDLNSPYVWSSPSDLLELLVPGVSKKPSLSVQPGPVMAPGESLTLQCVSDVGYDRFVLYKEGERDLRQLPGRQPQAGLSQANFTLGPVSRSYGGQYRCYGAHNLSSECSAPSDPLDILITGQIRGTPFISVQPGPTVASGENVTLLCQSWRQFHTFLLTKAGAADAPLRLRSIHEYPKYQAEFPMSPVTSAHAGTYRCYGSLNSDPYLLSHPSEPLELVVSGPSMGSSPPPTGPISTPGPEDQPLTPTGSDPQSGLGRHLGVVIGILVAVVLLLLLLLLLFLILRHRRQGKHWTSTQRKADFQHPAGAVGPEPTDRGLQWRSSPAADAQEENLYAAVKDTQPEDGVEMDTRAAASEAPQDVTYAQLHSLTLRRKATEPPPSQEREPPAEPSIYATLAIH
T5 sequence (P59901 24-499): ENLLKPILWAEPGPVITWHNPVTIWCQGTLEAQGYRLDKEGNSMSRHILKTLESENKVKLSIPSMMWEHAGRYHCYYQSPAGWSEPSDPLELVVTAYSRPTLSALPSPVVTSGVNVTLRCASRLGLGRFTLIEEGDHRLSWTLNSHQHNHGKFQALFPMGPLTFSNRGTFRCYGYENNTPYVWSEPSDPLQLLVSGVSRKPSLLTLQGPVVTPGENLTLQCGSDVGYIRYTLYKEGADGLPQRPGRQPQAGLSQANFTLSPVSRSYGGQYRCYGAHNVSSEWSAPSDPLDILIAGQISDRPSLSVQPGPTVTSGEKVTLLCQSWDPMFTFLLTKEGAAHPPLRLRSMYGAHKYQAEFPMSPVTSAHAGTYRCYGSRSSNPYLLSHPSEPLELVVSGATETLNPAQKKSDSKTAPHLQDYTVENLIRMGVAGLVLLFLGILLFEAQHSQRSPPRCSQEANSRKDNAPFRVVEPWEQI

Binder | MFI [1] [MFI] | MFI [2] [MFI] | MFI [3] [MFI] | MFI [4] [MFI] | MFI [5] [MFI] | MFI [6] [MFI] | MFI [7] [MFI] | MFI [8] [MFI] | MFI [9] [MFI] | MFI [10] [MFI] | FcγR stimulation (TNF-α, pg/mL) [11] [pg/mL] | Fold change (Compared to isotype) [11] [fold] | EC50 (nM), ADCC on THP-1 cells [12] [nM] | Max cell cytotoxicity (%), ADCC on THP-1 cells [12] [%] | ADCP (%) at 133.3 nM, macrophages and MV-4-11 cells [13] [%] | EC50 [14] [nM] | Max MFI [14] [MFI] | binding result [15]
25-E7-A10-H6 (antibody, V domains shown, mouse monoclonal hybridoma antibody) VH: EVQLVESGGGLVQPGGSRKLSCAASGFTFSTFGMHWVRQAPEKGLEWVAYISSGSSTIYYADTVKGRFTISRDNPKNTLFLQMTSLRSEDTAMYYCARSTGTGAMDYWGQGTSVTVSS VL: DIQMTQTTSSLSASLGDRVTISCRASQDISKYLNWYQQKPDGTVKLLIYYTSRLHSGVPSRFSGSGSGTDYSLTISNLEQEDIATYFCQQGNTLPWTFGGGTKLEIK | 19.9 | 23.1 | 22.5 | 23.1 | 19.9 | 16.3 | 759 | 33.2 | 21 | 20.1 |  |  |  |  |  |  |  | 
27-F11-E10-G10 (antibody, V domains shown, mouse monoclonal hybridoma antibody) VH: EVQLVESGGGLVQPGGSRKLSCAASGFTFSSFGMHWVRQAPEKGLEWVAYISSGSSTIYYADTVKGRFSISRDNPKNTLFLQMTSLRSEDTAMFYCARSTGTGAMDYWGQGTSVTVSS VL: DIQMTQTTSSLSASLGDRVTISCRASQDISNYLNWYQQKPDGTVKLLIYYTSRLHSGVPSRFSGSGSGTDYSLTISNLEQEDIATYFCQQGNTLPWTFGGGTKLELK |  | 22.1 | 21.1 | 24.9 | 19.7 | 19.5 | 512 | 27.7 | 17.3 | 19.1 |  |  |  |  |  |  |  | 
10-H9-E3-G3 (antibody, V domains shown, mouse monoclonal hybridoma antibody) VH: EVQRVESGGGLVQPGGSRKLSCAASGFTFSSFGMHWVRQAPEKGLEWVAYISSGSSAMYYADTVKGRFTISRDNPKNTLFLQMTSLRSEDTAMYYCARSDGKGAMDYWGQGTSVTVSS VL: DIQMTQTTSSLSASLGDRVTISCRASQDISNYLNWYQQKPDGTVKLLVYYTSRLHSGVPSRFSGSGSGTDYSLTISNLEQEDIATYFCQQGNTLPWTFGGGTKLEIK | 25 | 21.6 | 21 | 22.7 | 20.7 | 21.8 | 210 | 29.5 | 19.9 | 18.3 |  |  |  |  |  |  |  | 
2-H1-D7-E5-D5 (antibody, V domains shown, mouse monoclonal hybridoma antibody) VH: EVHLVESGGGLVQPGGSRKLSCAASGFTFSSFGMHWVRQPPEKGLEWVAYISSGSSSIYYADTVKGRFTISRDNPKNTLFLQMTSLRSEDTAMYYCARGTGTGAMDYWGQGTSVTVSS VL: DIQMTQTTSSLSASLGDRVTISCRTSQDISNYLNWYQQKPDGTVKLLIYYTSKLHSGVPSRFSGSGSGTDYSLTISNLDQEDIATYFCQQGNTLPWTFGGGTKLEIK | 24.7 | 21.9 | 25.2 | 23 | 23.7 | 22.6 | 915 | 31.5 | 20 | 20 |  |  |  |  |  |  |  | 
26-H9-B9-B7 (antibody, V domains shown, mouse monoclonal hybridoma antibody) VH: EVQRVESGGGLVQPGGSRKLSCAASGFTFSSFGMHWVRQAPEKGLEWVAYISSGSSTIYYADTVKGRFTISRDNPKNTLFLQMTSLRSEDTAMYYCARSDGKGAMDYWGQGTSVTVSS VL: DIVMTQSTSSLSASLGDRVTISCRASQDISNYLNWYQQKPDGTVKLLIYYTSRLHSGVPSRFSGSGSGTDYSLTISNLEQEDIATYFCQQGNTLPWTFGGGTKLEIK | 19.6 | 21.3 | 20.8 | 23.6 | 19.4 | 19.6 | 441 | 28.8 | 17.9 | 19.1 |  |  |  |  |  |  |  | 
27-G5-E9-B8 (antibody, V domains shown, mouse monoclonal hybridoma antibody) VH: EVQLVESGGGLVQPGGSRKLSCAASGFTFSSFGMHWVRQAPEKGLEWVAYISSGSSTIYYADTVKGRFTISRDNPKNTLFLQMTSLRSEDTAMYYCARSTGTGAMDYWGQGTSVTVSS VL: DIQMTQTTSSLSASLGDSVTFSCRASQDISNYLNWYQQKPDGTVKLLISYTSRLHSGVPSRFSGSGSGTDYSLTISNLEQEDIATYFCQQGNALPWTFGGGTKLEIK | 19.1 | 24 | 20.2 | 23.7 |  | 18.7 | 213 | 25.4 | 17.7 | 19.5 |  |  |  |  |  |  |  | 
ch43-D12-F3-G11 (antibody, V domains shown) VH: EVQVVESGPGLVAPSQSLSITCTVSGFSLTSYGVSWVRQPPGKGLEWLGVIWADGSTNYHSALLSRLSISKDNSKSQVFLKLNSLQTDDTATYYCAKGHWDGFAYWGQGTLVAVSA VL: DIVLTQSPAIMSTSPGEKVTLTCSASSSITSSYLYWYQQKPGSSPKLWIYSTSNLASGVPARFSGSGSGTSYYLTISSMEAEDAASYFCHQWSSYPPTFGGGTKLELK |  |  |  |  |  |  |  |  |  |  | 215 | 6.81 | 4.14 | 2.39 | 18.2 | 2.91 | 48000 | 
43-D12-F3-G11 (antibody, V domains shown, mouse monoclonal hybridoma antibody) VH: EVQVVESGPGLVAPSQSLSITCTVSGFSLTSYGVSWVRQPPGKGLEWLGVIWADGSTNYHSALLSRLSISKDNSKSQVFLKLNSLQTDDTATYYCAKGHWDGFAYWGQGTLVAVSA VL: DIVLTQSPAIMSTSPGEKVTLTCSASSSITSSYLYWYQQKPGSSPKLWIYSTSNLASGVPARFSGSGSGTSYYLTISSMEAEDAASYFCHQWSSYPPTFGGGTKLELK | 172 | 22.2 | 22.6 |  | 21.2 | 17.9 | 727 | 30.4 | 20 | 20.2 |  |  |  |  |  |  |  | 
ch48-E11-H7-B5 (antibody, V domains shown) VH: EVQLVESGGGLVKPGGSLKLSCAASGFTFSSYAMSWVRQTPEKRLEWVASITIGDDTYYPDSVKGRFTISRDHAKNILYLQVSSLRSEDTAMYSCARGVNSYGSSYRYFDVWGAGTTVTVSS VL: DIVMTQSHKFMSTSVGDRVSITCKASQDVSTAVAWYQQKPGQSPKLLIYWASTRHTGVPDRFTGSGSGTDYTLTISSVQAEDLALYYCQQHYSIPFTFGAGTKLEK |  |  |  |  |  |  |  |  |  |  | 1310 | 41.4 |  |  | 18 | 4.05 | 53700 | no binding (tested: up to 66.67 nM)
ch8-B3-F6-H8 (antibody, V domains shown) VH: EVKVIESGGGLVQPGGSLKLSCAASGFDFSRYWMSWVRQAPGKGLEWIGEINPDSSAINYTPSLKDKFIISRDNAKNTLYLQMSKVRSEDTALYYCATSMTMDYWGQGTSVTVSS VL: DIVMTQSPSSMYASLGERVTITCKASQDIKSYLSWYQQKPWKSPKTLIYYATSLADGVPSRFSGSGSGQDYSLTISSLESDDTATYYCLQHGESPYTFGGGTKLEK |  |  |  |  |  |  |  |  |  |  | 391 | 12.4 |  | 7.1 | 4.59 | 2.05 | 48500 | 
8-B3-F6-H8 (antibody, V domains shown, mouse monoclonal hybridoma antibody) VH: EVKVIESGGGLVQPGGSLKLSCAASGFDFSRYWMSWVRQAPGKGLEWIGEINPDSSAINYTPSLKDKFIISRDNAKNTLYLQMSKVRSEDTALYYCATSMTMDYWGQGTSVTVSS VL: DIVMTQSPSSMYASLGERVTITCKASQDIKSYLSWYQQKPWKSPKTLIYYATSLADGVPSRFSGSGSGQDYSLTISSLESDDTATYYCLQHGESPYTFGGGTKLEK | 24.5 | 22.2 | 19.4 |  | 19.5 | 16.8 | 1060 | 29.5 | 19.6 | 20 |  |  |  |  |  |  |  | 

Source: patent publication US20250361295A1 (ANTENGENE BIOLOGICS, published 2025)
